Measurements reported in paper PMC5556974 (Developmental cell, 2017).

Tests used:
GST-CEP19 (human) = GST-CEP19 (human) (UniProt Q96LK0); assay: pull-down
[1] = target: GST-CrCEP19 (Chlamydomonas reinhardtii); assay: pull-down
[2] = target: the molecule itself

GST-CEP19 (human), sequence (Q96LK0 whole entry): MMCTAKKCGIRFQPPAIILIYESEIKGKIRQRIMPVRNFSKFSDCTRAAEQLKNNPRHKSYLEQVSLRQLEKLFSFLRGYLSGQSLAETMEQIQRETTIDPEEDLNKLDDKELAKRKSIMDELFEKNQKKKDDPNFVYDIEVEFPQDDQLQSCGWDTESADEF

## MYC-RABL2B, full length (in vitro translated) (from UniProt Q9UNT1 1-228) (natural protein)
GST-CEP19 (human)
  fold enhancement of binding by GTP addition: 5 fold

## MYC-CrRabl2 (in vitro translated) (natural protein)
[1]
  fold enhancement of binding by GTP addition: 5 fold

B1: untagged human RABL2B (natural protein, UniProt Q9UNT1-2 1-229, looked up)
chain: MAEDKTKPSELDQGKYDADDNVKIICLGDSAVGKSKLMERFLMDGFQPQQLSTYALTLYKHTATVDGRTILVDFWDTAGQERFQSMHASYYHKAHACIMVFDVQRKVTYRNLSTWYTELREFRPEIPCIVVANKIDADINVTQKSFNFAKKFSLPLYFVSAADGTNVVKLFNDAIRLAVSYKQNSQDFMDEIFQELENFSLEQEEEDVPDQEQSSSIETPSEEAASPHS
[2]
  stoichiometry N: 4
